Bridge positions count the residues as written; N and C are the ends. Ends that are not written are not given here. I, II: the chains in the order shown. * marks the point of attachment. Formula (I) = human serum albumin binder 2-[2-[2-[2-[2-[2-[2-(carbonylmethoxy)ethoxy]ethylamino]-2-oxo-ethoxy]ethoxy]ethylamino]-2-oxo-ethoxy]-5-(18-carboxyoctadecyl)benzoic acid, amide to Lys epsilon-N, O=C(O)CCCCCCCCCCCCCCCCCCc1ccc(OCC(=O)NCCOCCOCC(=O)NCCOCCOCC(=O)*)c(C(=O)O)c1
Columns and labels:
[1] = target: human insulin receptor isoform B (human) (UniProt P06213); test: cell-based or functional assay
Chain of UniProt P06213 (P06213 28-1382): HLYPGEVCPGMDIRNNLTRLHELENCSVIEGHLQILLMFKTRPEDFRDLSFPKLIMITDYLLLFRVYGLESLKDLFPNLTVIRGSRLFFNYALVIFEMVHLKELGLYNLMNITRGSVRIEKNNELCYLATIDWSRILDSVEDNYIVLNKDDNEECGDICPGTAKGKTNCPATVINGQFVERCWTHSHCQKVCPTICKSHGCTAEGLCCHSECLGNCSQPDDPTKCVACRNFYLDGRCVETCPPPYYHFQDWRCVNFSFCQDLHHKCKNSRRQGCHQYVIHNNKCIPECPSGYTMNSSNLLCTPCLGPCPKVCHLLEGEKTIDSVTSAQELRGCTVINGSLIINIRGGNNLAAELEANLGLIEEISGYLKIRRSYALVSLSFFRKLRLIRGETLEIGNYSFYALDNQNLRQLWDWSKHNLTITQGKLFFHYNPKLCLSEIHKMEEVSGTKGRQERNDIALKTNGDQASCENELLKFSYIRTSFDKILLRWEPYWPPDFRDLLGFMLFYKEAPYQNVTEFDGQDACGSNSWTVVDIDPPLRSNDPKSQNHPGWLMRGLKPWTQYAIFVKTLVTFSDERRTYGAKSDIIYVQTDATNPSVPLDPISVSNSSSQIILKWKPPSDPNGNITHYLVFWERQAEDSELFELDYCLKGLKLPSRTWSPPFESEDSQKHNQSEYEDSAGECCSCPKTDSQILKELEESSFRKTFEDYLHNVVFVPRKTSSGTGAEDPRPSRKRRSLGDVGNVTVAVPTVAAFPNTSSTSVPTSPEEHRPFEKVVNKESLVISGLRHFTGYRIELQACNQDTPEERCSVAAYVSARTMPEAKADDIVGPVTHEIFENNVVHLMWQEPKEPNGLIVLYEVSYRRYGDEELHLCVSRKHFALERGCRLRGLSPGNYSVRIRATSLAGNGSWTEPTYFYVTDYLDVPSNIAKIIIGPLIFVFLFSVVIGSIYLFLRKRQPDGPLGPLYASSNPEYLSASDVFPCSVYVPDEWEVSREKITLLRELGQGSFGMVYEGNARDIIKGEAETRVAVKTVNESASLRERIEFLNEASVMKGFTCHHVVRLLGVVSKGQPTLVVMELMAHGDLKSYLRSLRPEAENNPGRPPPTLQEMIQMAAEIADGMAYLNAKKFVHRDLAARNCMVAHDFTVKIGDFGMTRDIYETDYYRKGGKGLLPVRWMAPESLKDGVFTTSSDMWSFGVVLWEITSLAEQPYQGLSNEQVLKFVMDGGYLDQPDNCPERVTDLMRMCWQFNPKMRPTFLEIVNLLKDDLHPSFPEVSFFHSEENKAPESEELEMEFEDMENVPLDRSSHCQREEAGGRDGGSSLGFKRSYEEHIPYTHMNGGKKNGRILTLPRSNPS

[2] = target: human insulin receptor isoform B (human) (UniProt P06213); test: SPA competition with [125I]-labelled human insulin, membranes of CHO cells overexpressing IR

B1: Conjugate 1: Arg(A5)Glu(A14)Arg(A18)Gly(A21)Glu(B16)His(B25)Arg(B27)Arg(B31)-insulin with the human serum albumin binder of Formula (I) on Lys(B29) (ligand)
chain 1: GIVERCCTSICSLEQLERYCG
chain 2: FVNQHLCGSHLVEALELVCGERGFHYRPK(Formula (I))TR
modifications: disulfide I:6-I:11, I:20-II:19, I:7-II:7
**Q.** For B1, which Autophosphorylation activity (relative to human insulin) (relative to human insulin) [1] is on record?
**A.** Its Autophosphorylation activity (relative to human insulin) (relative to human insulin) is 0.07.

**Q.** What about the Insulin receptor B binding affinity relative to human insulin [2] of the same binder?
**A.** Its Insulin receptor B binding affinity relative to human insulin is < 2%.

**Q.** What about the Insulin-receptor binding affinity relative to human insulin (relative to human insulin) [2] of the same binder?
**A.** Its Insulin-receptor binding affinity relative to human insulin (relative to human insulin) is 0.01.

— US20250082758A1
